According to the RNAGym collection of RNA variant scans (doi:10.1073/pnas.2313332121):

B1: TPR t1 (parent)
chain: GACCAAUCUGCCCUCAGAGCUCGAGAACAUCUUCGGAUGCAGAGGAGGCAGGCUUCGGUGGCGCGAUAGCGCCAACGUCCUCAACCUCCAAUGCAUCCCACCACAUGAUGAUGCCUGAAGAGCCUUGGUUUUUUG

Variants of: B1
Experiment: polymerase ribozyme fitness, log enrichment relative to wild type (log ratio); higher = more active; in vitro selection for triplet polymerase activity
Summary of the method: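 Frozen incubation at −7 °C formed the core of a single, triplicate in vitro selection round applied to PCR-built, transcribed mutant libraries of each subunit of a heterodimeric triplet polymerase ribozyme. Extended constructs were gel-excised, captured with streptavidin beads and amplified by RT-PCR, and input and output libraries were Illumina-sequenced with a filter of ≥10 input reads and ≥1 read per output. Fitness is the logarithm of genotype enrichment relative to wild-type enrichment, with inverse-variance-weighted replicate averaging, and the logarithm is base 2.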

| Variant | polymerase ribozyme fitness (log ratio) |
| --- | --- |
| GACCAAUCUGCCCUCAGAGCUCGAGAACAUCUUCGGAUGCGGAGGAGGCAGGCUUCGGUGGCGCGAUAGCGCCAACGUCCUCAACCUCCAAUGCAUCCCACCACAUGAUGAUGCCUGAAGUGCCUUGGUUUUUUG [A41G A121U] | 1.72 |
| GACCAAUCUGCCCUCAGAGCUCGAGAACAUCUUCGGAUGCGGAGGAGGAAGGCUUCGGUGGCGCGAUAGCGCCAACGUCCUCAACCUCCAAUGCAUCCCACCACAUGAUGAUCCCUGAAGAGCUUUGGUUUUUUG [A41G C49A G113C C124U] | -3.06 |
| GACCAAUCUGCCCUCAGAGCUCGAGAACAUCUUCGGAUGCGGAGGAGGCAGGCUUCGGUGGCGCGAUAGCGCCAACGUCCUCUACCUCCAAUGCAUCCUACCACAUGAUGAUGCAUGAAGAGCCUUGGUUGUUUG [A41G A83U C99U C115A U131G] | -4.22 |
| GACCAAUCUGCCCUCAGAGCUCGAGAACAUCUUCGGAUGCGGAGGUGGCAGGCUUCGGUGGCGCGAUAGCGCCAACUUCCUCAACCUCCAAUGCAUCCCACCACAUGAUGAUGCCUGAAGAGCCUUGGUUUUUUG [A41G A46U G77U] | -3.75 |
| GACCAAUCUGCCCUCAGAGCUCGAGAACAUCUUCGGAUGCGGAGGAGGCAGGCUUCGGUGGCGCGAUAGCGCUAACGUCCUCAACCUCCAAUGCAUCCCACCACAUGAUGAUGCCUGAAGAGCCUUGGUUUUUUG [A41G C73U] | -0.342 |
| GACCAAUCUGCCCUCAGAGCUCGAGAACAUCUUCGGAUGCGGAGGAGGCAGGUUUCGGUGGCGCGAUAGCGCCAACGUCCUCAACCUCCAAUGCAUCCCACCACAUGAUGAUGCCUGAAGAGCCUUGGUUUUUUG [A41G C53U] | -0.653 |
| GACCAAUCUGCCCUCAGAGCUCGAGAACAUCUUCGGAUGCGGAGGAGGCAGGCUUUGGUGGCGCGAUAGCGGCAACGUCCUCAACCUCCAAUGCAUCCCACCACAUGAUGAUACCUGAAGAGCCUUGUUUUUUUG [A41G C56U C72G G113A G128U] | -5.35 |
| GACCAAUCUGCCCUCAGAGCUCGAGAACAUCUUCGGAUGCGGAGGAGGGAGGCUUCGGGGGCGCGAUAGCGCCAACGUCCUCAACCUCCAAUGCAUCCCACCACAUGAUGAUGCCUGAAGAGCCUUGGUUUUUUG [A41G C49G U59G] | -1.99 |
| GACCAAUCUGCCCUCAGAGCUCGAGAACAUCUUCGGAUGCGGAGGAGGCAGGCUUCGGUGGAGCGAUAGCGCCAACGUCCUCAACCUCCAAUGCAUCCCACCACAUGAUGAUGCCUGAAGAGCCUUGGUUUUUUG [A41G C62A] | -1.85 |
| GACCAAUCUGCCCUCAGAGCUCGAGAACAUCUUCGGAUGCGGAGGAGGCAGGCUUGGGUGGCGCGAUACCGCCAACGUCCUCAACCUCCAAUGCAUCCCACCACAUGAUGAUGCCUGAAGAGCCUUGGUUUUGUG [A41G C56G G69C U133G] | -5.1 |
| GACCAAUCUGCCCUCAGAGCUCGAGAACAUCUUCGGAUGCGGAGGAGGCAGGGUUCGGUGGCGCGAUAGCGCCAACGUCCUCACCCUCCAAUGCAUCCCACCACAUGAUGAUGCCUGAAGAGCCUAGGUUUUUUG [A41G C53G A84C U126A] | -2.86 |
| GACCAAUCUGCCCUCAGAGCUCGAGAACAUCUUCGGAUGCGGAGGAGGCAGGCUUCGGUGGCGUGAUAGCGCCAACGUCCACAACCUCCAAUGCAUCCCACCACAUGAUGAUGCCUGAAGAGCCUUGGUUUUUUG [A41G C64U U81A] | -2.25 |
| GACCAAUCUGCCCUCAGAGCUCGAGAACAUCUUCGGAUGCGGAGGAGGCAGGCUUUGGUGGCGCGAUAGCGACAACGUCCUCAACCUCCAAUGCAUCCCACCACAUGAUGAUACCUGAAGAGCCUUGUUUUUUUG [A41G C56U C72A G113A G128U] | -5.53 |
| GACCAAUCUGCCCUCAGAGCUCGAGAACAUCUUCGGAUGCGGAGGAGGUAGGCUUCGGUGGCGCGAUAGCGCCAACGUCCUCAACCUCCAAUGCAUCCCACCACAUGAUAAUGCCUGAAGAACCUUUGUUUUUUG [A41G C49U G110A G122A G127U] | -5.4 |
| GACCAAUCUGCCCUCAGAGCUCGAGAACAUCUUCGGAUGCGGAGGAGGCAGGCUUAGGUGGCUCGAUAGUGCCAACGUCCUCAACCUCCAAUGCAUCCCACCACAUGAUGAUGCCUGAAGAGCCUUGGUUUUUUG [A41G C56A G63U C70U] | -2.43 |
| GACCAAUCUGCCCUCAGAGCUCGAGAACAUCUUCGGAUGCGGAGGAGGCAGGCUUCGGUGGCGCGAUAGCGCCAACGUCCUCAACCUCCAAUGCAUCCCACCACUUGAUGAUGCCUGAAGAGCCUUGGUUUUUUG [A41G A105U] | -3.3 |
| GACCAAUCUGCCCUCAGAGCUCGAGAACAUCUUCGGAUGCGGAGGAGGCAGGCUUCGGUGGCGCGAUAGCGCCAACGUCCUCAACCUCCAAUGCAUCCCACCCCAUGAUGAUGCCUGAAGAGCCUUGGUUUUUUG [A41G A103C] | -5.33 |
| GACCAAUCUGCCCUCAGAGCUCGAGAACAUCUUCGGAUGCGGAGGAGGCAGGCUUCGGUGGCGCGAUAGCGCGAACGUCCUCAACCUCCAAUCCAUCCCACCACAUGAUGAUGCCUGAAGAGCCUUGGUUUUUUG [A41G C73G G93C] | -2.94 |
| GACCAAUCUGCCCUCAGAGCUCGAGAACAUCUUCGGAUGCGGAGGAGGCAGGCUUCGGUGGCGCGAUAGCGACAACGUCCUCAACCUCCAAUGCAUCUCACCACAUGAUGAUGCCUGAAGAGCUUUGGUUUUUUG [A41G C72A C98U C124U] | 0.986 |
| GACCAAUCUGCCCUCAGAGCUCGAGAACAUCUUCGGAUGCGGAGGAGGGAGGCUACGGUGGCGCGAUAGCGCUAACGUCCUCAACCUCCAAUGCAUCCCACCACAUGAUGCUGCCUGAAGAGCCUUGGUUUUUUG [A41G C49G U55A C73U A111C] | -2.46 |
| GACCAAUCUGCCCUCAGAGCUCGAGAACAUCUUCGGAUGCGGAGGAGGGAGGCUACGGUGGCGCGAUAGCGCCAACGUCCUCAACCUCCAAUGCAUCCCACCACAUGAUGCUGCCUGAAGAGCCUUGGUUUUUUG [A41G C49G U55A A111C] | -1.63 |
